In patent JP2018153172A (dated 2018):

T1: 可溶性ヒトgp130受容体 (soluble human gp130 receptor, extracellular region of SEQ ID NO 1 with six histidines) (human, UniProt P40189 23-619)
T1 construct: Secreted from CHO DG44 cells and purified on HisTrap; no cleavage site is stated; also called 可溶性ヒトgp130受容体タンパク質; ヒト可溶性gp130受容体
T1 sequence: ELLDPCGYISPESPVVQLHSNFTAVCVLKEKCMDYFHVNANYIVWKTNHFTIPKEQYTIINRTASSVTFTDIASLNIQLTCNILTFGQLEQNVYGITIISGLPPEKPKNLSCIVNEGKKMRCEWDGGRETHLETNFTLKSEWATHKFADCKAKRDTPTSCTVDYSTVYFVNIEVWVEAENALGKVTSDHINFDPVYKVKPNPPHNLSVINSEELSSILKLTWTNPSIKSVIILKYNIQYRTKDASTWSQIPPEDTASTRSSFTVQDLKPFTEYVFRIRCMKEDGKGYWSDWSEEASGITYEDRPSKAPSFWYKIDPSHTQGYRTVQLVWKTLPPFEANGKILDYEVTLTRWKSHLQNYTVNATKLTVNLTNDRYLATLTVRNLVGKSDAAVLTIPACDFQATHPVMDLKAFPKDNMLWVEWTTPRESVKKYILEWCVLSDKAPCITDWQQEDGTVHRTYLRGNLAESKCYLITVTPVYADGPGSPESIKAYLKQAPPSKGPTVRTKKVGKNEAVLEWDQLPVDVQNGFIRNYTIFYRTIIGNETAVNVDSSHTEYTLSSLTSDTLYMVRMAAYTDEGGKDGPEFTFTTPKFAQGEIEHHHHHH

B1: ヒト化抗体A AH2−AL7 (antibody, V domains shown)
VH: QVQLQQPGAELVQPGTSVRLSCKASGYTFTDYNMDWVKQRPGQGLEWIGDINSHSGGIIYNQKFKDKATLTVDKSSSTAYMQLSSLTSEDSAVYYCTRTYYVYGHFFDYWGQGTLVTVSA
VL: DIQMTQSPSTLSASIGDRVTITCNVSSSVTSMYWFQQRPGQAPKVLIYLTSNLASGVPSRFSGSGSGTDFTFTISSLQPEDIATYYCQQWSTNPLTFGGGTKVDIK
notes: VH on human IgG1 constant region (pFUSEss-CHIg-hG1), VL on human kappa constant region (pFUSE2ss-CLIg-hk); also called AH2-AL7
B2: ヒト化抗体A AH2−AL8 (antibody, V domains shown)
VH: QVQLQQPGAELVQPGTSVRLSCKASGYTFTDYNMDWVKQRPGQGLEWIGDINSHSGGIIYNQKFKDKATLTVDKSSSTAYMQLSSLTSEDSAVYYCTRTYYVYGHFFDYWGQGTLVTVSA
VL: ELVLTQSPGTLSLSAGERATLSCNVSSSVTSMYWYQQKPGKAPKLLIYLTSNLASGAPSRFSGSGSGTDFTLTISSLQPDDFATYYCQQWSTNPLTFGGGTKLEIK
notes: VH on human IgG1 constant region (pFUSEss-CHIg-hG1), VL on human kappa constant region (pFUSE2ss-CLIg-hk); also called AH2-AL8
B3: ヒト化抗体A AH7−AL2 (antibody, V domains shown)
VH: EVQLVQSGAEVKKPGATVKISCKASGYTFTDYNMDWVRQAPGQGLEWIGDINSHSGGIIYNQKFKDWVTMTRDTSINTAYMELRLRSDDTAVYYCARTYYVYGHFFDYWGQGTLVTVSA
VL: DIQMTQSPSSLSASVGDRVTITCNVSSSVTSMYWYQQKQGKSPQLLVYLTSNLASGVPSRFSGSGSGTQFSLKINNLQPEDFGSYYCQQWSTNPLTFGAGTKLDLK
notes: VH on human IgG1 constant region (pFUSEss-CHIg-hG1), VL on human kappa constant region (pFUSE2ss-CLIg-hk); also called AH7-AL2
B4: ヒト化抗体A AH7−AL6 (antibody, V domains shown)
VH: EVQLVQSGAEVKKPGATVKISCKASGYTFTDYNMDWVRQAPGQGLEWIGDINSHSGGIIYNQKFKDWVTMTRDTSINTAYMELRLRSDDTAVYYCARTYYVYGHFFDYWGQGTLVTVSA
VL: EIVLTQSPATLSLSPGERATLSCNVSSSVTSMYWYQQKPGQAPRLLIYLTSNLASGIPDRFSGSGSGTDFTLTISRLEPEDFAVYYCQQWSTNPLTFGQGTKVEIK
notes: VH on human IgG1 constant region (pFUSEss-CHIg-hG1), VL on human kappa constant region (pFUSE2ss-CLIg-hk); also called AH7-AL6
B5: ヒト化抗体A AH3−AL1 (antibody, V domains shown)
VH: QVQLVQSGAEVKKPGASVKVSCKASGYTFTDYNMDWVRQAPGQGLEWIGDINSHSGGIIYNQKFKDKATMTVDTSTNTAYMELSSLRSEDTAVYYCARTYYVYGHFFDYWGQGTLVTVSS
VL: DIQMTQSPSSLSASVGDRVTITCNVSSSVTSMYWYQQKPGKAPKLLIYLTSNLASGVPARFSGSGSGTEFTLTISSLQPDDFATYYCQQWSTNPLTFGAGTKLDLK
notes: VH on human IgG1 constant region (pFUSEss-CHIg-hG1), VL on human kappa constant region (pFUSE2ss-CLIg-hk); also called AH3-AL1
B6: ヒト化抗体A AH5−AL1 (antibody, V domains shown)
VH: EVQLVQSGPELKKPGASVKVSCKASGYTFTDYNMDWVKQRPGQGLEWIGDINSHSGGIIYNQKFKDRVTITADESTSTAYMELTSLTSEDTAVYYCARTYYVYGHFFDYWGQGTLVSVSS
VL: DIQMTQSPSSLSASVGDRVTITCNVSSSVTSMYWYQQKPGKAPKLLIYLTSNLASGVPARFSGSGSGTEFTLTISSLQPDDFATYYCQQWSTNPLTFGAGTKLDLK
notes: VH on human IgG1 constant region (pFUSEss-CHIg-hG1), VL on human kappa constant region (pFUSE2ss-CLIg-hk); also called AH5-AL1
B7: ヒト化抗体A AH3−AL2 (antibody, V domains shown)
VH: QVQLVQSGAEVKKPGASVKVSCKASGYTFTDYNMDWVRQAPGQGLEWIGDINSHSGGIIYNQKFKDKATMTVDTSTNTAYMELSSLRSEDTAVYYCARTYYVYGHFFDYWGQGTLVTVSS
VL: DIQMTQSPSSLSASVGDRVTITCNVSSSVTSMYWYQQKQGKSPQLLVYLTSNLASGVPSRFSGSGSGTQFSLKINNLQPEDFGSYYCQQWSTNPLTFGAGTKLDLK
notes: VH on human IgG1 constant region (pFUSEss-CHIg-hG1), VL on human kappa constant region (pFUSE2ss-CLIg-hk); also called AH3-AL2
B8: ヒト化抗体A AH7−AL1 (antibody, V domains shown)
VH: EVQLVQSGAEVKKPGATVKISCKASGYTFTDYNMDWVRQAPGQGLEWIGDINSHSGGIIYNQKFKDWVTMTRDTSINTAYMELRLRSDDTAVYYCARTYYVYGHFFDYWGQGTLVTVSA
VL: DIQMTQSPSSLSASVGDRVTITCNVSSSVTSMYWYQQKPGKAPKLLIYLTSNLASGVPARFSGSGSGTEFTLTISSLQPDDFATYYCQQWSTNPLTFGAGTKLDLK
notes: VH on human IgG1 constant region (pFUSEss-CHIg-hG1), VL on human kappa constant region (pFUSE2ss-CLIg-hk); also called AH7-AL1
B9: ヒト化抗体A AH3−AL6 (antibody, V domains shown)
VH: QVQLVQSGAEVKKPGASVKVSCKASGYTFTDYNMDWVRQAPGQGLEWIGDINSHSGGIIYNQKFKDKATMTVDTSTNTAYMELSSLRSEDTAVYYCARTYYVYGHFFDYWGQGTLVTVSS
VL: EIVLTQSPATLSLSPGERATLSCNVSSSVTSMYWYQQKPGQAPRLLIYLTSNLASGIPDRFSGSGSGTDFTLTISRLEPEDFAVYYCQQWSTNPLTFGQGTKVEIK
notes: VH on human IgG1 constant region (pFUSEss-CHIg-hG1), VL on human kappa constant region (pFUSE2ss-CLIg-hk); also called AH3-AL6
B10: ヒト化抗体A AH3−AL3 (antibody, V domains shown)
VH: QVQLVQSGAEVKKPGASVKVSCKASGYTFTDYNMDWVRQAPGQGLEWIGDINSHSGGIIYNQKFKDKATMTVDTSTNTAYMELSSLRSEDTAVYYCARTYYVYGHFFDYWGQGTLVTVSS
VL: DIQMTQSPSTLSASVGDRVTITCNVSSSVTSMYWYQQKPGKAPKLLIYLTSNLASGVPARFSGSGSGTEFTLTISSLQPDDFATYYCQQWSTNPLTFGQGTKVEVK
notes: VH on human IgG1 constant region (pFUSEss-CHIg-hG1), VL on human kappa constant region (pFUSE2ss-CLIg-hk); also called AH3-AL3
B11: ヒト化抗体A AH7−AL5 (antibody, V domains shown)
VH: EVQLVQSGAEVKKPGATVKISCKASGYTFTDYNMDWVRQAPGQGLEWIGDINSHSGGIIYNQKFKDWVTMTRDTSINTAYMELRLRSDDTAVYYCARTYYVYGHFFDYWGQGTLVTVSA
VL: DIQMTQSPASLSASVGETVTITCNVSSSVTSMYWYQQKPGKAPKLLIYLTSNLASGVPARFSGSGSGTEFTLTISSLQPDDFATYYCQQWSTNPLTFGAGTKLDLK
notes: VH on human IgG1 constant region (pFUSEss-CHIg-hG1), VL on human kappa constant region (pFUSE2ss-CLIg-hk); also called AH7-AL5
B12: ヒト化抗体A AH5−AL5 (antibody, V domains shown)
VH: EVQLVQSGPELKKPGASVKVSCKASGYTFTDYNMDWVKQRPGQGLEWIGDINSHSGGIIYNQKFKDRVTITADESTSTAYMELTSLTSEDTAVYYCARTYYVYGHFFDYWGQGTLVSVSS
VL: DIQMTQSPASLSASVGETVTITCNVSSSVTSMYWYQQKPGKAPKLLIYLTSNLASGVPARFSGSGSGTEFTLTISSLQPDDFATYYCQQWSTNPLTFGAGTKLDLK
notes: VH on human IgG1 constant region (pFUSEss-CHIg-hG1), VL on human kappa constant region (pFUSE2ss-CLIg-hk); also called AH5-AL5
B13: ヒト化抗体A AH5−AL3 (antibody, V domains shown)
VH: EVQLVQSGPELKKPGASVKVSCKASGYTFTDYNMDWVKQRPGQGLEWIGDINSHSGGIIYNQKFKDRVTITADESTSTAYMELTSLTSEDTAVYYCARTYYVYGHFFDYWGQGTLVSVSS
VL: DIQMTQSPSTLSASVGDRVTITCNVSSSVTSMYWYQQKPGKAPKLLIYLTSNLASGVPARFSGSGSGTEFTLTISSLQPDDFATYYCQQWSTNPLTFGQGTKVEVK
notes: VH on human IgG1 constant region (pFUSEss-CHIg-hG1), VL on human kappa constant region (pFUSE2ss-CLIg-hk); also called AH5-AL3
B14: ヒト化抗体A AH8−AL1 (antibody, V domains shown)
VH: EVQLVQSGAEVKKPGASVKVSCKASGYTFTDYNMDWVRQAPGKGLEWVGDINSHSGGIIYNQKFKDRVTITADRSTSTVYMELSGLRSEDTAVYYCARTYYVYGHFFDYWGKGTLVTVSS
VL: DIQMTQSPSSLSASVGDRVTITCNVSSSVTSMYWYQQKPGKAPKLLIYLTSNLASGVPARFSGSGSGTEFTLTISSLQPDDFATYYCQQWSTNPLTFGAGTKLDLK
notes: VH on human IgG1 constant region (pFUSEss-CHIg-hG1), VL on human kappa constant region (pFUSE2ss-CLIg-hk); also called AH8-AL1
B15: ヒト化抗体A AH7−AL3 (antibody, V domains shown)
VH: EVQLVQSGAEVKKPGATVKISCKASGYTFTDYNMDWVRQAPGQGLEWIGDINSHSGGIIYNQKFKDWVTMTRDTSINTAYMELRLRSDDTAVYYCARTYYVYGHFFDYWGQGTLVTVSA
VL: DIQMTQSPSTLSASVGDRVTITCNVSSSVTSMYWYQQKPGKAPKLLIYLTSNLASGVPARFSGSGSGTEFTLTISSLQPDDFATYYCQQWSTNPLTFGQGTKVEVK
notes: VH on human IgG1 constant region (pFUSEss-CHIg-hG1), VL on human kappa constant region (pFUSE2ss-CLIg-hk); also called AH7-AL3
B16: ヒト化抗体A AH3−AL5 (antibody, V domains shown)
VH: QVQLVQSGAEVKKPGASVKVSCKASGYTFTDYNMDWVRQAPGQGLEWIGDINSHSGGIIYNQKFKDKATMTVDTSTNTAYMELSSLRSEDTAVYYCARTYYVYGHFFDYWGQGTLVTVSS
VL: DIQMTQSPASLSASVGETVTITCNVSSSVTSMYWYQQKPGKAPKLLIYLTSNLASGVPARFSGSGSGTEFTLTISSLQPDDFATYYCQQWSTNPLTFGAGTKLDLK
notes: VH on human IgG1 constant region (pFUSEss-CHIg-hG1), VL on human kappa constant region (pFUSE2ss-CLIg-hk); also called AH3-AL5
B17: ヒト化抗体A AH7−AL4 (antibody, V domains shown)
VH: EVQLVQSGAEVKKPGATVKISCKASGYTFTDYNMDWVRQAPGQGLEWIGDINSHSGGIIYNQKFKDWVTMTRDTSINTAYMELRLRSDDTAVYYCARTYYVYGHFFDYWGQGTLVTVSA
VL: DIQMTQSPSSLSASVGDRVTITCNVSSSVTSMYWYQQKQGKSPQLLVYLTSNLASGVPSRFSGSGSGTDFTLTISSLQPEDFATYYCQQWSTNPLTFGQGTKVEIK
notes: VH on human IgG1 constant region (pFUSEss-CHIg-hG1), VL on human kappa constant region (pFUSE2ss-CLIg-hk); also called AH7-AL4
B18: ヒト化抗体A AH5−AL4 (antibody, V domains shown)
VH: EVQLVQSGPELKKPGASVKVSCKASGYTFTDYNMDWVKQRPGQGLEWIGDINSHSGGIIYNQKFKDRVTITADESTSTAYMELTSLTSEDTAVYYCARTYYVYGHFFDYWGQGTLVSVSS
VL: DIQMTQSPSSLSASVGDRVTITCNVSSSVTSMYWYQQKQGKSPQLLVYLTSNLASGVPSRFSGSGSGTDFTLTISSLQPEDFATYYCQQWSTNPLTFGQGTKVEIK
notes: VH on human IgG1 constant region (pFUSEss-CHIg-hG1), VL on human kappa constant region (pFUSE2ss-CLIg-hk); also called AH5-AL4
B19: ヒト化抗体A AH3−AL4 (antibody, V domains shown)
VH: QVQLVQSGAEVKKPGASVKVSCKASGYTFTDYNMDWVRQAPGQGLEWIGDINSHSGGIIYNQKFKDKATMTVDTSTNTAYMELSSLRSEDTAVYYCARTYYVYGHFFDYWGQGTLVTVSS
VL: DIQMTQSPSSLSASVGDRVTITCNVSSSVTSMYWYQQKQGKSPQLLVYLTSNLASGVPSRFSGSGSGTDFTLTISSLQPEDFATYYCQQWSTNPLTFGQGTKVEIK
notes: VH on human IgG1 constant region (pFUSEss-CHIg-hG1), VL on human kappa constant region (pFUSE2ss-CLIg-hk); also called AH3-AL4

molecular target: T1, 可溶性ヒトgp130受容体 (soluble human gp130 …); assay: ELISA, immobilised soluble human gp130, COS1 supernatant, anti-human antibody-HRP

Binding result, binds:
B1
B2
B3
B4
B5
B6
B7
B8
B9
B10
B11
B12
B13
B14
B15
B16
B17
B18
B19
